Square brackets hold non-standard residues; d marks the D form. Ends that are not written are not given here. Nle = CCCC[C@H](N)C(=O)O; Orn = NCCC[C@H](N)C(=O)O; Aib = CC(C)(N)C(=O)O

This is an account of results in patent US20090118167A1, “Selective Vpac2 Receptor Peptide Agonists” (Eli Lilly and Company Patent Division, priority 2004, published 2009).

In one series the target is T1, human VPAC1 (Homo sapiens, UniProt P32241).
T1 construct: expressed in transfected cells
T1 sequence (P32241 31-457): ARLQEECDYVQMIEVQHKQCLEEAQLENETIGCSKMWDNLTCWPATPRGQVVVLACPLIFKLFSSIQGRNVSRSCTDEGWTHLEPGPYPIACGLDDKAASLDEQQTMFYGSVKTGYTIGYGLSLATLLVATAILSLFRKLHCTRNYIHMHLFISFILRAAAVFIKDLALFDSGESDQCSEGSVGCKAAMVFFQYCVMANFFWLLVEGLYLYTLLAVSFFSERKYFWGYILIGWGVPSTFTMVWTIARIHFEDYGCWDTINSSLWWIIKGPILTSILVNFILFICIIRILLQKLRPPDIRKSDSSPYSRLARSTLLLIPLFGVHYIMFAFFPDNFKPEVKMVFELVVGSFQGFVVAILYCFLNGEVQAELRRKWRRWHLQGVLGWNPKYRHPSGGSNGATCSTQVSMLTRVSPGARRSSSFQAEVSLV
Nature of the series: Filter binding assay, 125I-labeled VIP tracer. Particulars: membranes from cells transiently transfected with human VPAC1; read-out: Human receptor binding IC50 VPAC1. How it is done:
(§1) In order to prepare the filter plates, the presoak solution is aspirated by vacuum filtration. The plates are flushed twice with 200 μL flush buffer. 200 μL blocking buffer is added to the filter plate. The filter plate is then incubated with 200 μL presoak solution for 1 hour at room temperature.
(§2) The assay plate is filled with 25 μL assay buffer, 25 μL membranes (2.5 μg) suspended in assay buffer, 25 μL compound (agonist) in assay buffer, and 25 μL tracer (about 40000 cpm) in assay buffer. The filled plate is incubated for 1 hour with shaking.
(§3) The transfer from assay plate to filter plate is conducted. The blocking buffer is aspirated by vacuum filtration and washed two times with flush buffer. 90 μL is transferred from the assay plate to the filter plate. The 90 μL transferred from assay plate is aspirated and washed three times with 200 μL flush buffer. The plastic support is removed. It is dried for 1 hour at 60° C. 30 μL Microscint is added. The count is performed.
(§4) Values reported are single results or the mean of two or more independent runs.

Another series addresses T2, human PAC1 (Homo sapiens, UniProt P41586).
T2 construct: expressed in transfected cells; membranes)
T2 sequence (P41586 21-468): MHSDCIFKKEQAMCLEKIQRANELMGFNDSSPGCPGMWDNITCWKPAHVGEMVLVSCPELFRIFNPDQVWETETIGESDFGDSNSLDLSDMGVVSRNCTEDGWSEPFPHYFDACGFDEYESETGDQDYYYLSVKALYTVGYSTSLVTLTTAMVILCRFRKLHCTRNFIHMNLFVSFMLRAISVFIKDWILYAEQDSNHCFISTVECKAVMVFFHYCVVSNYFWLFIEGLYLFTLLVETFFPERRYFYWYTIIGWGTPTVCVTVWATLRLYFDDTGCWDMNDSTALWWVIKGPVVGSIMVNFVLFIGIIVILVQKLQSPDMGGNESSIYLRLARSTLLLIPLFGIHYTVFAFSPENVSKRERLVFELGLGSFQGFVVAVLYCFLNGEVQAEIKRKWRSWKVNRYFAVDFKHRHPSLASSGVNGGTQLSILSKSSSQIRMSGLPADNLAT
The experiment in a line: Filter binding assay, 125I-labeled PACAP-27 tracer. Particulars: membranes from cells transiently transfected with human PAC1; read-out: Human receptor binding IC50 PAC1. The method, then:
as §1, §2, §3, §4

The conditions of series [1]: rat, in vivo, sc, 0.1 mg/kg. How it is done:
Healthy Fisher 344 rats (3 animals per group) are injected with 100 μg compound/kg (compound amount based on peptide content and dissolved in PBS buffer). […] PK parameters are then calculated using a model-independent method (WinNonlin Pro, Pharsight Corp., Mountain View, Calif., USA).

For another series, the system named is Normal Wistar rats. Nature of the series: Intravenous glucose tolerance test (IVGTT). Particulars: 10 min between glucose and compound. It counts as in vivo, rat. How it is done:
Intravenous glucose tolerance test (IVGTT): Normal Wistar rats are fasted overnight and are anesthetized prior to the experiment. A blood sampling catheter is inserted into the rats. The compound is given in the jugular vein. Blood samples are taken from the carotid artery. A blood sample is drawn immediately prior to the injection of glucose along with the compound. After the initial blood sample, glucose mixed with compound is injected intravenously (i.v.). Compound may also be injected intravenously or subcutaneously prior to the glucose challenge. A glucose challenge of 0.5 g/kg body weight is given, injecting a total of 1.5 mL vehicle with glucose and agonist per kg body weight. The peptide concentrations are varied to produce the desired dose in μg/kg. Blood samples are drawn at 2, 4, 6 and 10 minutes after giving glucose. The control group of animals receives the same vehicle along with glucose, but with no compound added. In some instances, a 30 minute post-glucose blood sample is drawn. Aprotinin is added to the blood sample (250-500 kIU/ml blood). The serum is then analyzed for glucose and insulin using standard methodologies.
The assay uses a formulated and calibrated peptide stock in PBS. Normally, this stock is a prediluted 100 μM stock. However, a more concentrated stock with approximately 1 mg agonist per mL is used. The specific concentration is always known. Variability in the maximal response is mostly due to variability in the vehicle dose.

The target in the next series is T3, rat VPAC1 receptor (rat, UniProt P30083 31-459).
T3 sequence (looked up): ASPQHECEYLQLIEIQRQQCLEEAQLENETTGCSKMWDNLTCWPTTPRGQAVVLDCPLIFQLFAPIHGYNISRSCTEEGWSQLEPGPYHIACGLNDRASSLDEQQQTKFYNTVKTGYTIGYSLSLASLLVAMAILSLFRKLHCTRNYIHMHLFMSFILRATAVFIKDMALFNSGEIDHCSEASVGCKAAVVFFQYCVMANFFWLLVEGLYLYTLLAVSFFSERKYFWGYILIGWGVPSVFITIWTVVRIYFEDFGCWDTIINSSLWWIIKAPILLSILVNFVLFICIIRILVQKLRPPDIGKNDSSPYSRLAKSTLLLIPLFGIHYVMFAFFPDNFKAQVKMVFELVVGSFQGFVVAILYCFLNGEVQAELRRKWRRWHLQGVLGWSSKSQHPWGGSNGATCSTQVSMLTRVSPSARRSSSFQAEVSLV
Nature of the series: cell-based or functional assay.

Another series deals with T4, rat VPAC2 receptor (rat, UniProt P35000 23-437).
T4 sequence (looked up): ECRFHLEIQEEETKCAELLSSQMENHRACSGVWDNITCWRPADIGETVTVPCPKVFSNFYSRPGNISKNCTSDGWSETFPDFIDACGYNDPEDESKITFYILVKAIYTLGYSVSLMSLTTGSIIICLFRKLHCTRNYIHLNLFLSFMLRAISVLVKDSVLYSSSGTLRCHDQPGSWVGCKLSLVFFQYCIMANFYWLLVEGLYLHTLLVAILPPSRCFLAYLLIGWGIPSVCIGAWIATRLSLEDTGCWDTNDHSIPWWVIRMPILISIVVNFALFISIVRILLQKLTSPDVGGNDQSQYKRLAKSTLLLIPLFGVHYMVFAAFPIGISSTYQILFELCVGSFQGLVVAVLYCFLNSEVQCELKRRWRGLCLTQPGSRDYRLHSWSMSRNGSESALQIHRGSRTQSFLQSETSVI
The experiment in a line: cell-based or functional assay.

Series [2] concerns the target T5, human VPAC2 receptor (human, UniProt P41587 24-438).
T5 sequence (looked up): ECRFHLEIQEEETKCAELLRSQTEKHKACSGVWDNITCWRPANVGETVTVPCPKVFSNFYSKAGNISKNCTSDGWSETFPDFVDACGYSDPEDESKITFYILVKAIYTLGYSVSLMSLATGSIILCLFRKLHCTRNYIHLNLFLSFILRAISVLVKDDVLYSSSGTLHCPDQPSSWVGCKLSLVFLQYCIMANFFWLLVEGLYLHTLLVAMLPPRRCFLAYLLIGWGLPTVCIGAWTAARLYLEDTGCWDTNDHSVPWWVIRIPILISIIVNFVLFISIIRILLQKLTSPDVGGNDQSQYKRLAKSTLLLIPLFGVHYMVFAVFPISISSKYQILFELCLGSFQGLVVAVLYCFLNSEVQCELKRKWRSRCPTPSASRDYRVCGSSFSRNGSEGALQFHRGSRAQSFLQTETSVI
The experiment in a line: cell-based or functional assay.

The target in series [3] is T5, human VPAC2 receptor. The experiment in a line: filter binding assay, human VPAC2 membranes, displacement of 125I-VIP. The method, then:
as §2, §3
Background: In a radioligand displacement assay an active substance lowers the binding of a labelled ligand.

For orientation: IC50 means the concentration that inhibits the measured activity by half. For orientation: Vd/F means the apparent distribution volume after extravascular dosing. Take “P255: cyclic PEGylated VPAC2 receptor peptide agonist (HSDAVFTENYTKL[Aib]KQ[Nle]AAKKYLNDLKQGGPSSGAPPPC; not fully specified (residue 39); ends and bridges not checked; also: cyclic, bridge type and places not given here, PEGylated, site not placed) [Agonist P255]”: the concentration for half-maximal inhibition (IC50) in the series with human VPAC1 is more than 3000 nM. The IC50 in the series with human PAC1 was more than 25000 nM. In series [1], this molecule displayed an AUC0-last of 5797 ng·h/mL, a Cl/F of 0.283 mL/min/kg and a Vd/F of 0.389 L/kg.
For “P257: cyclic PEGylated VPAC2 receptor peptide agonist (HSDAVFTENYTKL[Aib]KQ[Nle]AAKKYLNDLKKGGPSSGAPPPC; not fully specified (residue 39); ends and bridges not checked; also: cyclic, bridge type and places not given here, PEGylated, site not placed) [Agonist P257]”, the “% increase AUC (insulin, 0-10 min after glucose)” value in the series on Normal Wistar rats (Dose 0.5 μg/kg) is given as “+14%”; with Normal Wistar rats (Dose 5 μg/kg) it was “+114%”; in the series on Normal Wistar rats (Dose 15 μg/kg), “+158%”; in the series on Normal Wistar rats (Dose 50 μg/kg), “+230%”. Also, the values for the IC50 with human VPAC1 and with human PAC1 were more than 25000 nM and more than 3000 nM, respectively. The AUC0-last in series [1] worked out at 4396 ng·h/mL. In series [1], this molecule displayed a Cl/F of 0.383 mL/min/kg. The molecule further returned a Vd/F in series [1] of 0.425 L/kg.

B1: P376 (cyclic PEGylated VPAC2 receptor peptide agonist) (peptide)
peptide: HSDAVFTENYT[Orn]LR[Aib]Q[Nle]AA[Orn]KYLNDL[Orn][Orn]GGPSSGAPPPC
modifications: not fully specified (residue 39); also: cyclic, bridge type and places not given here, PEGylated, site not placed
For the molecule B1, the “EC50 for cAMP generation, DiscoveRx, CHO-PO cells” value (“EC50 … CHO-PO cells” for short) amounted to 48.4 nM with rat VPAC1 receptor and 9.13 nM with rat VPAC2 receptor. In the series with human VPAC2 receptor [2], the “EC50 for cAMP generation, Alpha screen” value was 4.71 nM. For the same molecule, in the series with human VPAC2 receptor [3], the IC50 is 4.89 nM.

B2: P239 (cyclic PEGylated VPAC2 receptor peptide agonist) (peptide)
peptide: HSDAVFTENYTKLRKQ[Nle]AAKKYLNDLKQGGPSSGAPPPC
modifications: ends and bridges not checked; also: further groups not given here
On to B2, for which the “EC50 … CHO-PO cells” value with rat VPAC1 receptor came out at 27.8 nM; in the series with rat VPAC2 receptor it was 11.2 nM. Also, the “EC50 for cAMP generation, Alpha screen” value with human VPAC2 receptor [2] turned out to be 4.42 nM. The same molecule yielded an IC50 with human VPAC2 receptor [3] of 8.33 nM.

B3: P201 (cyclic PEGylated VPAC2 receptor peptide agonist) (peptide)
peptide: HSDAVFTENYTKLRKQ[Nle]AAKKYLNDLKKGGPSSGAPPPC
modifications: not fully specified (residue 39); ends and bridges not checked; also: further groups not given here
As to B3, the “EC50 … CHO-PO cells” value in the series with rat VPAC1 receptor amounted to 20.8 nM; with rat VPAC2 receptor, 13.2 nM. In the series with human VPAC2 receptor [2], the “EC50 for cAMP generation, Alpha screen” value is 7.82 nM. The molecule further registered an IC50 in the series with human VPAC2 receptor [3] of 4.11 nM.

B4: P255 (cyclic PEGylated VPAC2 receptor peptide agonist) (peptide)
peptide: HSDAVFTENYTKL[Aib]KQ[Nle]AAKKYLNDLKQGGPSSGAPPPC
modifications: ends and bridges not checked; also: further groups not given here
Consider B4, for which the entries for the “EC50 … CHO-PO cells” value in the series with rat VPAC1 receptor and with rat VPAC2 receptor were more than 350 nM and 51.4 nM, respectively. Further, in the series with human VPAC2 receptor [2], the “EC50 for cAMP generation, Alpha screen” value is 111 nM. For the same molecule, the IC50 in the series with human VPAC2 receptor [3] was more than 100 nM.

B5: P463 (cyclic PEGylated VPAC2 receptor peptide agonist) (peptide)
peptide: HSDAVFTENYT[Orn]LR[Aib]Q[Nle]AA[Orn]KYLNDL[Orn][Orn]GGPSSGAPPPC
modifications: also: cyclic by a side-chain bridge (lactam or disulfide), places not given here, PEGylated, site not given here
As for B5, the “EC50 … CHO-PO cells” value with rat VPAC1 receptor is 184 nM; in the series with rat VPAC2 receptor it was 182 nM. For the same molecule, the “EC50 for cAMP generation, Alpha screen” value with human VPAC2 receptor [2] stood at 365 nM. Moreover, the IC50 with human VPAC2 receptor [3] was more than 100 nM.
